These are literature values, as cited in patent US9925277B2, “Polynucleotide compositions containing amino acids” (ModernaTX, Inc., priority 2013, dated 2018).

The target of this series is Factor IX (Homo sapiens, UniProt P00740, R384L). To be noted: mutation at position R338L.
Sequence of Factor IX (P00740 47-461 R384L): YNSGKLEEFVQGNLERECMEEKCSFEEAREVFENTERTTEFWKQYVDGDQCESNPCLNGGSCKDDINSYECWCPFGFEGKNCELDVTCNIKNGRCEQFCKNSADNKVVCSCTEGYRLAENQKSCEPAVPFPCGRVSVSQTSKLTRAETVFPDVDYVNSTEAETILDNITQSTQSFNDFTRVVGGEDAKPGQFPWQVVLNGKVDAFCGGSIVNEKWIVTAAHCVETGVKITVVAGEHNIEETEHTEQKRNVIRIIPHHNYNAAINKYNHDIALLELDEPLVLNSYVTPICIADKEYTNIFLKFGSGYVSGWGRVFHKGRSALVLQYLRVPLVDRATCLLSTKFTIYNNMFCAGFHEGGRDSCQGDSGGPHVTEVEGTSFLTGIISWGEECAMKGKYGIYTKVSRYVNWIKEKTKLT

In the case of “FIX Padua: Factor IX protein with mutation at position R338L, hyperactive naturally occurring variant”, the “increased activity of Factor IX protein” value is recorded as 10 fold.
